Data as given in patent US20220204643A1 (published 2022).
Each block holds one binder with its values, some of them ahead of it.

How the values were obtained:
Test in all cases: protein array
enolase 2 = target: T1, enolase 2 (human, UniProt P09104 2-434)
T1 construct: on protein array; also called ENO2

nudix hydrolase 21 = target: T2, nudix hydrolase 21 (human, UniProt O43809 2-227)
T2 construct: on protein array; also called NUDT21

[1] = target: T3, zinc finger protein 431, transcript variant 2 (human, UniProt Q8TF32 1-576)
T3 construct: on protein array; also called ZNF431
T3 sequence (Q8TF32 other isoform, or with tags, fused parts or gaps mutant limits assumed): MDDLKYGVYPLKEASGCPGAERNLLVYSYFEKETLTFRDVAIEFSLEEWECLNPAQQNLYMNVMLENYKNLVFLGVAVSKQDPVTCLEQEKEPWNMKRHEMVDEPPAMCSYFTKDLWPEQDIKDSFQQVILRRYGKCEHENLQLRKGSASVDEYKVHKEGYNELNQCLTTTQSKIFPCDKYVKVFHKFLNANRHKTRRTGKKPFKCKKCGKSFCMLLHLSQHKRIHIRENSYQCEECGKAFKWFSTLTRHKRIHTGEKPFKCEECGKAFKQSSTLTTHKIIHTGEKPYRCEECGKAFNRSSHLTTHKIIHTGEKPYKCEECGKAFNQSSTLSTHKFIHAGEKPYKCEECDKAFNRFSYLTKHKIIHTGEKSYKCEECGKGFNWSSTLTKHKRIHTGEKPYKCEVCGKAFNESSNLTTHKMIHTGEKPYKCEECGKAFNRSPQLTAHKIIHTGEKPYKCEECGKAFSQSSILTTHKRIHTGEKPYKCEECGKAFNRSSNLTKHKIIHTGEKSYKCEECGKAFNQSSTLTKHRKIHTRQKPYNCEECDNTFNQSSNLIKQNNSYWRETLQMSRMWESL

Zinc finger protein 699 = target: T4, Zinc finger protein 699 (human, UniProt Q32M78 1-642)
T4 construct: on protein array; also called ZNF699
T4 sequence (Q32M78 whole entry): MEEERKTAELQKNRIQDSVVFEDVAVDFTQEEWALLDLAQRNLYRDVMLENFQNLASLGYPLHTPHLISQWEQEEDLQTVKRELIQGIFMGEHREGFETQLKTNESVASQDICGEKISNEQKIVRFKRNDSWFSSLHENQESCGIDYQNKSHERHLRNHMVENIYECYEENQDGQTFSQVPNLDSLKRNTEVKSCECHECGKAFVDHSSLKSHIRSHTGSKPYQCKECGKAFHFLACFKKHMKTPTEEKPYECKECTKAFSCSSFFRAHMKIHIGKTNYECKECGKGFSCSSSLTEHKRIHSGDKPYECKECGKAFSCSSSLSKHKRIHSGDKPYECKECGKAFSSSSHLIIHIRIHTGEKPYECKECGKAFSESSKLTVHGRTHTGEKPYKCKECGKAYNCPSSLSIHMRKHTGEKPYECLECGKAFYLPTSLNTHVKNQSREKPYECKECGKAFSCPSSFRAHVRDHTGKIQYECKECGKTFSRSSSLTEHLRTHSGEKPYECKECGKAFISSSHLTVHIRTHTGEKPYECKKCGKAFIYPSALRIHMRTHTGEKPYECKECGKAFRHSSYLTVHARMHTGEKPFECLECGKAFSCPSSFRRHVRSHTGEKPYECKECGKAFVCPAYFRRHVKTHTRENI

[2] = target: T5, anterior gradient 3, protein disulphide isomerase family member (human, UniProt Q8TD06 22-166)
T5 construct: on protein array; also called AGR3
T5 sequence: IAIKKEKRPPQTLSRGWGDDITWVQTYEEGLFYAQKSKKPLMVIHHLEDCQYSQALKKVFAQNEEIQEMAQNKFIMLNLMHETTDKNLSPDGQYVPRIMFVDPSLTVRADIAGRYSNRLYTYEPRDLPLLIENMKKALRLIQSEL

zinc finger protein 296 = target: T6, zinc finger protein 296 (human, UniProt Q8WUU4 1-475)
T6 construct: on protein array; also called ZNF296
T6 sequence: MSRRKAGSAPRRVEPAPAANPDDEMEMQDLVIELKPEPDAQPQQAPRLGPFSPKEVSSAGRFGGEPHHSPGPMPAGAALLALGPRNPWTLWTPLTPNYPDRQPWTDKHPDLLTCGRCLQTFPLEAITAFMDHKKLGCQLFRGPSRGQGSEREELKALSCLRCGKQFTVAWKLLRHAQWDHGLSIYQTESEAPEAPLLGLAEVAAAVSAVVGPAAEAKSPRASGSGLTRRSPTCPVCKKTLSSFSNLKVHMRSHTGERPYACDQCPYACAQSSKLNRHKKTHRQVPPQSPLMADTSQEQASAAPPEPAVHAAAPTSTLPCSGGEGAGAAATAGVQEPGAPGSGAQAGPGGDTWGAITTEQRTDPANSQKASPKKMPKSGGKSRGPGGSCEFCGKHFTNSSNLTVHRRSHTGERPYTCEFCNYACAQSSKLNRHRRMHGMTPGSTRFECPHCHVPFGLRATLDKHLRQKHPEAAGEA

[3] = target: phosphodiesterase 5A, transcript variant 1 (human, UniProt O76074 1-875)
[4] = target: T7, microtubule associated scaffold protein 2, transcript variant 2 (human, UniProt Q5JR59 1040-1369)
T7 construct: on protein array; also called MTUS2
T7 sequence: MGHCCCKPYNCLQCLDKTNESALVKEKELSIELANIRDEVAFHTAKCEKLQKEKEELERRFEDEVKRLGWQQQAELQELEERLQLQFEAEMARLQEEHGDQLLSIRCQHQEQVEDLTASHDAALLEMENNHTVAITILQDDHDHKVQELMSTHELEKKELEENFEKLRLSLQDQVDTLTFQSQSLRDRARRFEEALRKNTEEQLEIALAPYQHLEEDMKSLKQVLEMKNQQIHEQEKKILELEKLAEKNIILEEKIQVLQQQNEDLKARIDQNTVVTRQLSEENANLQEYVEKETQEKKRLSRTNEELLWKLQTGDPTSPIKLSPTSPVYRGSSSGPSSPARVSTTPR

[5] = target: T8, ubiquilin 1, transcript variant 2 (human, UniProt Q9UMX0 2-589)
T8 construct: on protein array; also called UBQLN1
T8 sequence (Q9UMX0 other isoform, or with tags, fused parts or gaps mutant limits assumed): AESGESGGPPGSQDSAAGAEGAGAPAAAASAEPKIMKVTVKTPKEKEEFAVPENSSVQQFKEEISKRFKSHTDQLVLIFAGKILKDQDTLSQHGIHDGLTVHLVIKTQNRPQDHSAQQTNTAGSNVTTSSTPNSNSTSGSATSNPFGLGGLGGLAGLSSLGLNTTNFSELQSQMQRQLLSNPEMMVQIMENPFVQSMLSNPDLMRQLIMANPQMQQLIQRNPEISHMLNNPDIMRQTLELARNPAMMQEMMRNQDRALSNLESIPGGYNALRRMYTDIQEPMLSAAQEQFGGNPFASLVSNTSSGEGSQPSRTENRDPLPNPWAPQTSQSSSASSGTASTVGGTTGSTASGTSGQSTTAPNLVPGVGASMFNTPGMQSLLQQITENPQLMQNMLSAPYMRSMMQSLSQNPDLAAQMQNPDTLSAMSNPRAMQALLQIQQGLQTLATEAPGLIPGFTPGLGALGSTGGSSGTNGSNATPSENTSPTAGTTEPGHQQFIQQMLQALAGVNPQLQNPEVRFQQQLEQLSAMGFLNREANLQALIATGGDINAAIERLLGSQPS

ubiquilin 2 = target: T9, ubiquilin 2 (human, UniProt Q9UHD9 2-624)
T9 construct: on protein array; also called UBQLN2
T9 sequence (Q9UHD9 2-624 limits assumed): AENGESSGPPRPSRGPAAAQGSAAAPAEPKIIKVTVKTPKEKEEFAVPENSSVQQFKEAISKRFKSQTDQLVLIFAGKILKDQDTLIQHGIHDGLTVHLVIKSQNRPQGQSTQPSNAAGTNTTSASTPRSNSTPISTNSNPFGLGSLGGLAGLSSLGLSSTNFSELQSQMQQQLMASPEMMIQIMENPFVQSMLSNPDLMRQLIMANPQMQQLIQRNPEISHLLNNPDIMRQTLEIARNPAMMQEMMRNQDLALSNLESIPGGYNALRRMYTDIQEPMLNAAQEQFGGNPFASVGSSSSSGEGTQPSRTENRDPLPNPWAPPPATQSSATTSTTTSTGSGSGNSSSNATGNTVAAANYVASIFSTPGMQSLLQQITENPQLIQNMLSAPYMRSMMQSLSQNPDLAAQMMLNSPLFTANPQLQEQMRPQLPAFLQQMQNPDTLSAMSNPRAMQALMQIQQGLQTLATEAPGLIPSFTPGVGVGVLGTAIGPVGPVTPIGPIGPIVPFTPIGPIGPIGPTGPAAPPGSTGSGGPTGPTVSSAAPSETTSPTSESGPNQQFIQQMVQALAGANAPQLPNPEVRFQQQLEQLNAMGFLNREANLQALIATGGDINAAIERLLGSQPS

Ubiquilin 3 = target: T10, Ubiquilin 3 (human, UniProt Q9H347 1-655)
T10 construct: on protein array; also called UBQLN3
T10 sequence: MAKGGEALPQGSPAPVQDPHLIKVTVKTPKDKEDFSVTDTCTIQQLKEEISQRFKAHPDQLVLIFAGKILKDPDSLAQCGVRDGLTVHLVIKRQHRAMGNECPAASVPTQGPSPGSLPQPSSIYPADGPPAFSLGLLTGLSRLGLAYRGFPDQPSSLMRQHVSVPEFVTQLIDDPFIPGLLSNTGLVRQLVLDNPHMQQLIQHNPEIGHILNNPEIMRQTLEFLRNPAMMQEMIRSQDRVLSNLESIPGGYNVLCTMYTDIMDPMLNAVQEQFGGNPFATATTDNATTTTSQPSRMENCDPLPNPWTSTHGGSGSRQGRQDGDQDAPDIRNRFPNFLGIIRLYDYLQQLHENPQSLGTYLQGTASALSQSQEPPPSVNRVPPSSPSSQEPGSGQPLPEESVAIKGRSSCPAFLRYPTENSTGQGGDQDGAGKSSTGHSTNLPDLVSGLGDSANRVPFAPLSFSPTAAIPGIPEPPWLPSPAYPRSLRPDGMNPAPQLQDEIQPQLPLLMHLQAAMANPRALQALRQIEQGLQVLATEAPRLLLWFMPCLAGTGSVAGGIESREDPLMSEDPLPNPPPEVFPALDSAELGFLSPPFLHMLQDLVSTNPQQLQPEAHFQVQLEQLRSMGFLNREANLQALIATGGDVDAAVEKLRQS

PAGE family member 2 = target: T11, PAGE family member 2 (human, UniProt Q7Z2X7 1-111)
T11 construct: on protein array; also called PAGE2
T11 sequence: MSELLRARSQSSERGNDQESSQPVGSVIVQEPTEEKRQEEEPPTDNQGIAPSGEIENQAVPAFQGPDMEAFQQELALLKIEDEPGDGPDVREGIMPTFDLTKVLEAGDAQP

[6] = target: T12, keratin associated protein 12-3 (human, UniProt P60328 1-96)
T12 construct: on protein array; also called KRTAP12-3
T12 sequence: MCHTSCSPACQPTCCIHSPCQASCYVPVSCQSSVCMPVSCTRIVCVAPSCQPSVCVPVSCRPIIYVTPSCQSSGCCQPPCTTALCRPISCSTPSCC

[7] = target: T13, arginine and glutamate rich 1 (human, UniProt Q9NWB6 1-273)
T13 construct: on protein array; also called ARGLU1
T13 sequence: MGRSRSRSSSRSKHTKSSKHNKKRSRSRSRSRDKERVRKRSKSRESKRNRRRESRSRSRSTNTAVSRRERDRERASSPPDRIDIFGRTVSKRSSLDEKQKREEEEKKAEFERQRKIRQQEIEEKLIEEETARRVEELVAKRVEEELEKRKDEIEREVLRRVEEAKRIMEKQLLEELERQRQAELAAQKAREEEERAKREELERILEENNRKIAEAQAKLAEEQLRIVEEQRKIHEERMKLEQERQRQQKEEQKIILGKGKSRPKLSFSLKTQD

[8] = target: T14, SAS-6 centriolar assembly protein, transcript variant 2 (human, UniProt Q6UVJ0 168-657)
T14 construct: on protein array; also called SASS6
T14 sequence: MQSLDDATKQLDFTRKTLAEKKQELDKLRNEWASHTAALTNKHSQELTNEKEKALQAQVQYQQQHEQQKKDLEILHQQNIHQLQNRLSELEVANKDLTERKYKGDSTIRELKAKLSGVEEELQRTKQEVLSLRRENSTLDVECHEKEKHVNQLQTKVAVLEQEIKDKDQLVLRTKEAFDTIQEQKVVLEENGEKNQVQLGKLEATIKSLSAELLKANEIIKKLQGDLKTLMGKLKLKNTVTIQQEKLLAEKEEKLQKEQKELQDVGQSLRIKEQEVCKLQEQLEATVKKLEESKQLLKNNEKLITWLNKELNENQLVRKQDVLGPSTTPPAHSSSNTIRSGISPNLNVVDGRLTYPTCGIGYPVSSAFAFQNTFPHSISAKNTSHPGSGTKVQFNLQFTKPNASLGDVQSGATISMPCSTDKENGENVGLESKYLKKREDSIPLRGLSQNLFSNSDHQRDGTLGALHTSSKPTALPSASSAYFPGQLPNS

Bcl2 like 1 = target: T15, Bcl2 like 1 (human, UniProt Q07817 1-233)
T15 construct: on protein array; also called BCL2L1
T15 sequence (Q07817 whole entry): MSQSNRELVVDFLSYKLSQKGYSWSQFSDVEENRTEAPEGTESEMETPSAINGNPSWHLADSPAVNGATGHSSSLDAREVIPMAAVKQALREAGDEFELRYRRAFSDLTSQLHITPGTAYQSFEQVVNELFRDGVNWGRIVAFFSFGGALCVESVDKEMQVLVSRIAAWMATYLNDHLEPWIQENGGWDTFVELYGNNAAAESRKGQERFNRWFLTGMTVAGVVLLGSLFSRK

[9] = target: T16, proteasome 26S subunit, non-ATPase 4, transcript variant 2 (human, UniProt P55036 1-377)
T16 construct: on protein array; also called PSMD4
T16 sequence (P55036 whole entry, change not shown): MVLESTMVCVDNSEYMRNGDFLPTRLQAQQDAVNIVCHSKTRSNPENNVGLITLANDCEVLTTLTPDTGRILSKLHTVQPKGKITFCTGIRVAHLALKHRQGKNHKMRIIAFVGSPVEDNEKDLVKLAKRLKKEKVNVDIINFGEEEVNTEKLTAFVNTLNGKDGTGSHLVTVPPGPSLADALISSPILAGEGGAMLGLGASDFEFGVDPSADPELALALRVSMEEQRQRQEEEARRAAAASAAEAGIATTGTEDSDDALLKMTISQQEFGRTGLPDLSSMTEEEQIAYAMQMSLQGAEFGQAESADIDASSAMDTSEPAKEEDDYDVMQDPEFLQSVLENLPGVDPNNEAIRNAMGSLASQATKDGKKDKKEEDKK

[10] = target: T17, Src like adaptor, transcript variant 1 (human, UniProt Q13239 2-276)
T17 construct: on protein array; also called SLA
T17 sequence: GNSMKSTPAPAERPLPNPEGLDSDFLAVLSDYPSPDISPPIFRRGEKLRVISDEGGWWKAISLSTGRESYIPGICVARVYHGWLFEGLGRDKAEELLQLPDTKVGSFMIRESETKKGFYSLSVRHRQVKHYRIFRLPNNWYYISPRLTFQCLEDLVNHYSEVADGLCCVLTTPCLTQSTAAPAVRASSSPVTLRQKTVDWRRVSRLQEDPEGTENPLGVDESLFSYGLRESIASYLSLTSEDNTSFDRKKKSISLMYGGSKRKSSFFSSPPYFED

T2 sequence (O43809 2-227 limits assumed): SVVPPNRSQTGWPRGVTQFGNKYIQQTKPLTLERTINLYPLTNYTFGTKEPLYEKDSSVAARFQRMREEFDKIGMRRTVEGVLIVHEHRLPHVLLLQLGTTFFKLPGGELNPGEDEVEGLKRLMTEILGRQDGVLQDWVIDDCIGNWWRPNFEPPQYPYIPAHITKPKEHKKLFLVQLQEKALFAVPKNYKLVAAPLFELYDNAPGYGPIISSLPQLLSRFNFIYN
T1 sequence (P09104 2-434 limits assumed): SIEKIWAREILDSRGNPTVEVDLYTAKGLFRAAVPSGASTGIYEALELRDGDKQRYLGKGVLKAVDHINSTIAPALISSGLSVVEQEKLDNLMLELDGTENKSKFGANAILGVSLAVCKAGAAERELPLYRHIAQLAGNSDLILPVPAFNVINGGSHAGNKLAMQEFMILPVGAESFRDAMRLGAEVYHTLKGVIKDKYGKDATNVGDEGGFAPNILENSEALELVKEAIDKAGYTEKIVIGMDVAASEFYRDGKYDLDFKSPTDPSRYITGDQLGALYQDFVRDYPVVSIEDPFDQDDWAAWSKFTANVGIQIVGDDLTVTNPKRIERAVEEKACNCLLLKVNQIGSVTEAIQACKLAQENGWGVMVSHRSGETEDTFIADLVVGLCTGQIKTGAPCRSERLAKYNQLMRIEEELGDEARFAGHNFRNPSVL

binding result (enolase 2): binds
B1: TMEL1037 (antibody, V domains shown)
VH: PLQLQESGPGLVKPSETLSLTCTVSGGSISSSSYYWGWIRQSPGKGLEWMGSIYYSGSTYYNPSLKSRVTISVDTSKNQFSLNLSSVTAADTAVYYCARHDYRNYFDYWGQGTLVTVSS
VL: not shown
notes: VH/VL tied via antigen in summary, not by name in this stretch

binding result (nudix hydrolase 21): binds
binding result [1]: binds
binding result (Zinc finger protein 699): binds
B2: TMEL1033 (antibody, V domains shown)
VH: PVQLQESGPGLVKPSETLSLTCTVSGGSVSSGSYYWSWIRQPPGKGLEWIGYIYYSGSTNYNPSLKSRVTISVDTSKNQFSLKLSSVTAADTAVYYCARDRGDYVTHWFDPWGQGTLVTVSS
VL: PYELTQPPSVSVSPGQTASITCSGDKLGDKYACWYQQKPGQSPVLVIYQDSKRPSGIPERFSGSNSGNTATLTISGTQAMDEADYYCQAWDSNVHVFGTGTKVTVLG
notes: as for B1

B3: TMEL1020 (antibody, V domains shown)
VH: QVHLVQSGAEVKKPGASVKVSCKASGYTFTNYFIHWVRQAPGQGPEWMGVINPSFGSTTYAQKLQGRVTMTRETSTSTVYMELSSLRSEDTAVYYCARESLDSASYSTIAHWGQGTLVTVSS
VL: EIVLAQSPGTLYLSPGERATLSCRASQSVRGNYLAWYQQRPGQAPRLLIYGASSRATGIPDRFGGSGSGTDFTLTITRLLPEDFAVYYCHQYGSSPRTFGQGTKVEIKR
notes: as for B1
binding result [2]: binds

binding result (zinc finger protein 296): binds
binding result [3]: binds
B4: TMEL1028 (antibody, V domains shown)
VH: QVQLVQSGAEVKKPGASVKVSCKASGYTFTSYGISWVRQAPGQGLEWMGWISAYNGNTNYAQKLQGRVTMTTDTSTSTAYMELRSLTSDDTAVYYCARDQGLERANWFDPWGQGTLVTVSS
VL: not shown
notes: as for B1

binding result [4]: binds
B5: TMEL1027 (antibody, V domains shown)
VH: QVQLVQSGAEVKKPGASVKVSCKASGYTFTVYYMHWVRQAPGQGLEWMGRINPNSGGTNYAQKFQGRVTMTRDTSISTAYMELSRLTSDDTAVYYCARVVVVGTDYGMDVWGQGTTVTVSS
VL: VSSELTQDPAVSVALGQTVRITCQGDSLRSYYASWYQQRPGQAPVLVIYGKNNRPSGIPDRFSGSSSGNTASLTITGAQAEDEADYYCNSRDSSGNHVFGTGTKVTVLG
notes: as for B1

binding result [5]: binds
binding result (ubiquilin 2): binds
binding result (Ubiquilin 3): binds
B6: TMEL1018 (antibody, V domains shown)
VH: PLQLQESGPGLVKPSETLSLTCTVSGGSISSSSYYWGWIRQPPGKGLEWIGSIYYSGSTYYNPSLKSRVTISVDTSKNQFSLKLSSVTAADTAVYSCARLLVGGAFDIWGQGTMVTVSS
VL: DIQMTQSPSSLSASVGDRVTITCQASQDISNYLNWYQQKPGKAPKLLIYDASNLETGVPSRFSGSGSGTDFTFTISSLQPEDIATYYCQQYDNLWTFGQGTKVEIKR
notes: as for B1

binding result (PAGE family member 2): binds
binding result [6]: binds
B7: TMEL1035 (antibody, V domains shown)
VH: QVQLVESGGGVVQPGRSLRLSCAASGFTFSSYAMHWVRQAPGKGLEWVAVISYDGSNKYYADSVKGRFTISRDNSKNTLYLQMNSLRAEDTAVYYCASPIAVAAPFAYWGQGTLVTVSS
VL: VSSELTQDPAVSVALGQTVRITCQGDSLRSYYASWYQQKPGQAPVLVIYGKNNRPSGIPDRFSGSSSGNTASLTITGAQAEDEADYYCNSRDSSGNLYVFGTGTKVTVLG
notes: as for B1

binding result [7]: binds
binding result [8]: binds
B8: TMEL1031 (antibody, V domains shown)
VH: EVQLVESGGGLVQPGGSLRLSCAASGFTVSSNYMSWVRQAPGKGLEWVSVIYSGGSTYYADSVKGRFTISRDNSKNTLSLQMNSLRAEDTAVYYCARESSAAGYDYWGQGTLVTVSS
VL: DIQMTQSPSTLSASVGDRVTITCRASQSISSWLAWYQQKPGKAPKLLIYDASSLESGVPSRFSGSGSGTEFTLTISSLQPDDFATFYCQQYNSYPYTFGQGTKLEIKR
notes: as for B1

binding result (Bcl2 like 1): binds
B9: TMEL1030 (antibody, V domains shown)
VH: QVQLQESGPGLVKPSGTLSLTCAVSGGSISSSNCWSWVRQPPGKGLEWLGEICHSGSTSYNPSLKSRVTISVDKSKNQFSLKLRSVTAADTAVYYCARESPLTVVFDYWGQGTLVTVSS
VL: DIQMTQSPSSLSASVGDRVTITCRASQGIRNDLGWFQQKPGKAPKRLIYAASNLPSGVSSRFSGSGSGTEFTLTISSLQPEDFATYYCLQHNNYPLTFGQGTKVEFKR
notes: as for B1

binding result [9]: binds
binding result [10]: binds
B10: TMEL1032 (antibody, V domains shown)
VH: QVQLVQSGAEVRKPGASVKVSCKASGYTFTTYYIHWVRQAPGQGLEWMGLINPNGGTTNYAQKFQGRLSMTTDTSTNTVYMELSSLRSEDTAVYYCARKLMSGIVSRGWFDPWGQGTLVTVSS
VL: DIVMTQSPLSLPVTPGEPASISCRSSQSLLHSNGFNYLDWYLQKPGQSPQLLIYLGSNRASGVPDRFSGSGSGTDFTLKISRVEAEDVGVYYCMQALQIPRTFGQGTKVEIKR
notes: as for B1
